For assay [1], the target named is Relatlimab analog, anti-LAG-3 benchmark (human). Nature of the assay: BLI; ZGGS15 or BM (4 µg/mL) loaded to protein A probes; FcγRI 30 to 1 nM in solution; 150 s association, 200 s dissociation; BLI kinetics assay buffer; 25 °C, 1000 rpm. In general terms: In BLI a coated tip is dipped into the sample, and binding shifts an interference pattern.
Assay [2] deals with ZGGS15, anti-LAG-3/TIGIT bispecific IgG4 antibody (human). Described as above.

The term Kd denotes the constant that tells how readily two partners part at equilibrium.

Relatlimab analog, anti-LAG-3 benchmark (human), sequence (heavy, as listed by the source, chain 1 of 2): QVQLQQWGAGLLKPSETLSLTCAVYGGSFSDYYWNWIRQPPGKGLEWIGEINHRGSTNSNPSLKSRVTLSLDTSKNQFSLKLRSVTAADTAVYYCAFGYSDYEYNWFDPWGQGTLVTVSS
Relatlimab analog, anti-LAG-3 benchmark (human), sequence (light, as listed by the source, chain 2 of 2): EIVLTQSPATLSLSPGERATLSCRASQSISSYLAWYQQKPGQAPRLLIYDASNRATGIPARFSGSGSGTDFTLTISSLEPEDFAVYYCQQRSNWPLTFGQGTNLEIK

As to “human Fc-gamma receptor I (FcγRI) (from UniProt P12314 16-374)”, the Kd in assay [1] was found to be 3 nM; in assay [2] it was 2.6 nM.

For the origin of these results see publication PMC11082181.
